Data taken from patent US20250290928A1, “METHOD, KIT AND DEVICE FOR DETECTING EXTRACELLULAR VESICLES” (priority 2022, published 2025).
No end group written: not given here. *: point of attachment. 5FAM = O=C1OC2(c3ccc(O)cc3Oc3cc(O)ccc32)c2ccc(C(=O)*)cc21; TF3 = Tide Fluor 3, fluorescent dye; TQ2 = quencher; TQ3 = quencher

Key:
[1] = target: T1, MMP14 in the MDA-MB-231-derived extracellular vesicles (Homo sapiens, UniProt P50281); assay: Digital detection of MDA-MB-231-derived extracellular vesicles through MMP14 activity in wells (microcompartments); type: biochemical; details: for Expected value λ / Number of positives / Positive ratio: reporter 5 μM, 30° C.
T1 construct: in terms of intact MMP14 with a molecular weight of 70 kDa
Method: The concentration of the solution is 6.7 μg/mL.
100 μL of the MMP14 detection solution was added to 100 μL of the sample to provide a reaction solution for wells. […] 100 μL of 200 μL of the prepared reaction solution for wells was used in the measurement of MMP14 activity with a 96-well plate.
Next, the wells were filled with the reaction solution by leaving the well array 200 to stand under reduced pressure to degas the space 205. After that, the space 205 was fed with hydrophobic solvents to be sealed. Fluorinated oils AsahiKlin AE-3000 (manufactured by AGC Inc.) and Fomblin Y-25 (manufactured by Solvay S.A.) were used as the hydrophobic solvents. A fluorinated oil Simoa (trademark) SR-X Sealing Oil: 102767 (manufactured by Quanterix Corporation) was further used as another hydrophobic solvent.
Well diameter: 4.25 μm Well depth: 3.25 μm Well capacity: 50 fL Number of wells in array: 239,000 Array range: 3 mm×4 mm
The concentration of the solution is 20 μg/mL. […] The concentration of the solution was set to x1, and 10-fold serial dilution was performed to prepare standard samples with five concentrations.
Next, the wells were filled with the reaction solution by leaving the well array 200 to stand under reduced pressure to degas the space 205. After that, the space 205 was fed with hydrophobic solvents to be sealed.
The concentration of the solution is 20 μg/mL. […] The concentration of the solution was set to x1, and 3-fold serial dilution was performed to prepare standard samples with three concentrations.
The concentration of the solution is 20 μg/mL. […] The concentration of the solution was set to x1, and 2-fold serial dilution was performed to prepare standard samples with four concentrations.
The concentration of the solution is 5 μg/mL.
50 μL of the MMP14 detection solution was added to 50 μL of the sample to provide a reaction solution for wells.
50 μL of each of the MMP14 detection solutions was added to 50 μL of the sample to provide a reaction solution for wells.
The concentration of the solution is 6.7 µg/mL.

[2] = target: T1, MMP14 in the MDA-MB-231-derived extracellular vesicles; assay: Evaluation of MMP14 activity of MDA-MB-231-derived extracellular vesicles with 96-well plate; type: biochemical
Method: A relative fluorescence unit difference ΔRFU was calculated by subtracting the measured value of the sample for BG measurement from the measured value of each of the samples.
The concentration of the solution is 41.7 μg/mL. The concentration of the solution was set to x1, and 2-fold serial dilution was performed to prepare standard samples with six concentrations.
50 μL of the MMP14 detection solution was added to 50 μL of each of the samples, a reaction was performed at 37° C., and MMP14 activity was evaluated.
The concentration of the solution is 10 μg/mL.
50 μL of each of the MMP14 detection solutions was added to 50 μL of each of the samples, a reaction was performed at 37° C., and MMP14 activity was evaluated. […]
The concentration of the solution is 20 μg/mL. The concentration of the solution was set to x1, and 3-fold serial dilution was performed to prepare standard samples with three concentrations.
The concentration of the solution is 8 μg/mL.
50 μL of each of the MMP14 detection solutions was added to 50 μL of the sample, a reaction was performed at 37° C., and MMP14 activity was evaluated. […]
50 μL of the MMP14 detection solution was added to 50 μL of each of the samples, a reaction was performed at 30° C., and MMP14 activity was evaluated.
The MMP14 activity of the extracellular vesicles was evaluated with a 96-well plate (137101). A fluorescence intensity was measured with a fluorescence plate reader (Synergy) at 30° C. every 5 minutes for 2 hours. For measurement wavelengths, an excitation wavelength of 545±20 nm and a fluorescence wavelength of 588±20 nm were used. A relative fluorescence unit difference (ΔRFU) was calculated by subtracting the measured value of the sample for BG measurement from the measured value of each of the samples.
50 μL of each of the MMP14 detection solutions was added to 50 μL of each of the samples, a reaction was performed at 30° C., and MMP14 activity was evaluated.

[3] = Example 42, EV 2.5 μg/mL, 4 hr, TRITC filter
[4] = Example 42, EV 2.5 μg/mL, 24 hr, TRITC filter
[5] = Example 38, 4 hr, at a concentration of x1, 50 fL
[6] = Example 38, 24 hr, at a concentration of x1, 50 fL
[7] = Example 38, EV 2.5 μg/mL, 24 hr
[8] = Example 37, EV 5 μg/mL, reporter 5 μM, buffer (4)
[9] = MP, 1.25 μM with 5 μM Custom #2TF3
[10] = MP, 2.5 μM with 2.5 μM Custom #2TF3

## TF3-GGPLGLAGGK(TQ3) [Custom #2TF3]
[1]; [3]
  Expected value λ: 0.1432
  Number of positives: 3,746
  Positive ratio: 0.1334
[1]; [4]
  Expected value λ: 0.1447
  Number of positives: 3,783
  Positive ratio: 0.1347
[1]; single reporter, reaction 4 hr, at EV concentration x1
  Expected value λ (×1): 0.5727
[1]; single reporter, reaction 4 hr, at x1, from λ (×1) and 50 fL microcompartment
  Extracellular vesicle concentration: 1.1454e+10 mL⁻¹
[1]; single reporter, reaction 24 hr, at EV concentration x1
  Expected value λ (×1): 0.5788
[1]; single reporter, reaction 24 hr, at x1, from λ (×1) and 50 fL microcompartment
  Extracellular vesicle concentration: 1.1576e+10 mL⁻¹
[2]; Example 41, EV 5 μg/mL, reporter 5 μM, buffer (4), excitation 545±20 nm, fluorescence 588±20 nm
  Fluorescence change after 2 hours of reaction at 30° C.: 3,791 ΔRFU
[2]; MP, 2.5 μM Custom #2TF3 with 2.5 μM Custom #11
  Fluorescence change after 2 hours of reaction at 30° C.: 313 ΔRFU
[2]; MP, 2.5 μM Custom #2TF3 with 2.5 μM Custom #12
  Fluorescence change after 2 hours of reaction at 30° C.: 319 ΔRFU
[2]; MP, 2.5 μM Custom #2TF3 with 2.5 μM Custom #13
  Fluorescence change after 2 hours of reaction at 30° C.: 452 ΔRFU
[2]; MP, 2.5 μM Custom #2TF3 with 2.5 μM Custom #14
  Fluorescence change after 2 hours of reaction at 30° C.: 397 ΔRFU
[2]; MP, 2.5 μM Custom #2TF3 with 2.5 μM Custom #15
  Fluorescence change after 2 hours of reaction at 30° C.: 551 ΔRFU
[2]; MP, 2.5 μM Custom #2TF3 with 2.5 μM Custom #16
  Fluorescence change after 2 hours of reaction at 30° C.: 1,085 ΔRFU
[2]; MP, 5 μM Custom #2TF3 with 1.25 μM Custom #11
  Fluorescence change after 2 hours of reaction at 30° C.: 772 ΔRFU
[2]; MP, 5 μM Custom #2TF3 with 1.25 μM Custom #12
  Fluorescence change after 2 hours of reaction at 30° C.: 618 ΔRFU
[2]; MP, 5 μM Custom #2TF3 with 1.25 μM Custom #13
  Fluorescence change after 2 hours of reaction at 30° C.: 814 ΔRFU
[2]; MP, 5 μM Custom #2TF3 with 1.25 μM Custom #14
  Fluorescence change after 2 hours of reaction at 30° C.: 714 ΔRFU
[2]; MP, 5 μM Custom #2TF3 with 1.25 μM Custom #15
  Fluorescence change after 2 hours of reaction at 30° C.: 1,023 ΔRFU
[2]; MP, 5 μM Custom #2TF3 with 1.25 μM Custom #16
  Fluorescence change after 2 hours of reaction at 30° C.: 1,857 ΔRFU

## TQ2-WPHGSLQAAK(5-FAM) (TQ2-WPHGSLQAAK(5FAM)) [Custom #16]
[1]; Example 38, 4 hr
  Expected value λ (×1): 0.06766
[1]; [5]
  Extracellular vesicle concentration: 1.353e+09 mL⁻¹
[1]; Example 38, 24 hr
  Expected value λ (×1): 0.3923
[1]; [6]
  Extracellular vesicle concentration: 7.845e+09 mL⁻¹
[1]; Example 38, EV 2.5 μg/mL, 4 hr
  Expected value λ: 0.01692
  Number of positives: 471
  Positive ratio: 0.01677
[1]; [7]
  Expected value λ: 0.09807
  Number of positives: 2,623
  Positive ratio: 0.09341
[2]; [8]
  Fluorescence change after 2 hours of reaction at 30° C.: 4,424 ΔRFU
[2]; [9]
  Fluorescence change after 2 hours of reaction at 30° C.: 852 ΔRFU
[2]; [10]
  Fluorescence change after 2 hours of reaction at 30° C.: 1,489 ΔRFU

## TQ2-FMPLGLRGIK(5-FAM) (TQ2-FMPLGLRGIK(5FAM)) [Custom #12]
[1]; Example 38, 4 hr
  Expected value λ (×1): 0.5189
[1]; [5]
  Extracellular vesicle concentration: 1.0377e+10 mL⁻¹
[1]; Example 38, 24 hr
  Expected value λ (×1): 1.232
[1]; [6]
  Extracellular vesicle concentration: 2.464e+10 mL⁻¹
[1]; Example 38, EV 2.5 μg/mL, 4 hr
  Expected value λ: 0.1297
  Number of positives: 3,416
  Positive ratio: 0.1216
[1]; [7]
  Expected value λ: 0.308
  Number of positives: 7,423
  Positive ratio: 0.2651
[2]; [8]
  Fluorescence change after 2 hours of reaction at 30° C.: 32,801 ΔRFU
[2]; [9]
  Fluorescence change after 2 hours of reaction at 30° C.: 13,343 ΔRFU
[2]; [10]
  Fluorescence change after 2 hours of reaction at 30° C.: 19,102 ΔRFU

## MCA-Pro-Leu-Ala-Cys(p-OMeBz)-Trp-Ala-Arg(Dpa)-NH2 [MMP-14 Substrate I]
[2]; Example 3, EV 5 μg/mL, reporter 10, 5 or 2.5 μM, 37° C., 2 hours
  detection of MMP14 activity (fluorescence intensity increased with the reaction time): MMP14 activity was able to be detected
